Literature values, collected in PMC4277939.

Target: EAG channel PAS domain PAS domain (Mus musculus) (UniProt Q60603)

EAG channel CNBh domain CNBh domain (from UniProt Q60603)
Kd: 10 µM
